# Experiments:
# [1] = biological target: human mesothelin-Fc fusion protein (human); experiment: SPR; Biacore T200; human mesothelin-Fc captured via amine-coupled anti-human IgG (Fc) antibody on a CM5 chip; CA-125-His-Avi and anti-mesothelin Fab injected consecutively and conversely (dual injects, 120 s contact each); PBS with 0.05% Tween 20, dilution with 1 mg/ml BSA; 25 °C
# [2] = biological target: human mesothelin-Fc fusion protein (human)
# Chain of human mesothelin-Fc fusion protein (human) (Q13421 other isoform, or with tags, fused parts or gaps): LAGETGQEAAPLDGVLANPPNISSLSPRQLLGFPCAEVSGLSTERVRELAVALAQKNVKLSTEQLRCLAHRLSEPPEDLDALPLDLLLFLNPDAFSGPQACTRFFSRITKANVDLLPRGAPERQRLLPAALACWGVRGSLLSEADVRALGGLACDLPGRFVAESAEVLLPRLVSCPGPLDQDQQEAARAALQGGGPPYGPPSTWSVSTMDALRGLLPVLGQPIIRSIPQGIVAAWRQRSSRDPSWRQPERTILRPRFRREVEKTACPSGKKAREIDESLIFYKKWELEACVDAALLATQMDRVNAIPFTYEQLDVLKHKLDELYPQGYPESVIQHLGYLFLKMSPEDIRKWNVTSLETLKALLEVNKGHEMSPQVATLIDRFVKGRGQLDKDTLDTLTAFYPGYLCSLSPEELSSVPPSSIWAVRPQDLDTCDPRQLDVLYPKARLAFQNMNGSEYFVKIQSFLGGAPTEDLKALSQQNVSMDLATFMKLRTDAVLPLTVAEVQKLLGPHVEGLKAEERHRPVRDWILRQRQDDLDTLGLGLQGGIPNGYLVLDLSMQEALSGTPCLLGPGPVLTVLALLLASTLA
substance,measurement,setting,value
"CA-125-HisAvi (recombinant CA-125, extracellular portion) (domain or fragment)",occupancy of mesothelin at maximal saturation,[1],70%
same,"the same heterotypic cell adhesion after pre-incubation of the NCI-H358-MSLN clones with RG7787 Fab: no NCI-H358 cells recovered for clones 4D8, 4H3 and 1G2; clone 2C5 only partly blocked",[2],10%
